This is an account of results in patent US20080301824A1.

For test [1], the target named is GFP-syt11 (GFP-tagged full-length human synaptotagmin XI) (human) [GFP: P42212]. The test is described as follows: co-IP with anti-HA agarose from HEK293 cells, anti-GFP blot.
For test [2], the target named is GAL4 binding domain-parkin(1-465) fusion encoded by pGBT9-parkin(1-465) (UniProt P04386). The test is described as follows: cell-based or functional assay.

Substance “HA-tagged parkin with missense mutation C289G (from UniProt O60260 1-465) (enzyme)” had a fold less interaction than parkinC418R in test [1] of 2.5 fold less.

“GAL4 activation domain-hsyt11AB fusion encoded by pGAD10-hsyt11AB (human synaptotagmin 11, domains C2A and C2B) (from UniProt Q9BT88 157-431)” showed a β-galactosidase activity in yeast two-hybrid liquid assay, against pGAD10-hsyt11AB with pGBT9 vector control in test [2] of 20 fold.
